Sequences and labels used below:
B1: B1-#19 (antibody, V domains shown)
VH: EQSVEESGGGLVKPEGSLTLTCKASGLDFSSSYWSCWVRQTPGRGLEWIGCIDVGSSGGSYYASWARGRFTVSKGSSTTVTLQMTSLTAADTATYFCASTTTNVFGYDLWGPGTLVTVSS
VL: ELDLTQTPASVSEPVGGTVTIKCQASQNIYNNLAWYQQKPGQPPKLLIYYASTLASGVPPRFSGSGSGTEYTLTISDLECDDAATYYCQNNAGIYGGYGHGFGGGTEVVVK
notes: recombinant rabbit IgG
B2: B1-#7 (antibody, V domains shown)
VH: EQSLEESGGGLVKPGASLTVTCAVSGFSLNSYAITWVRQAPGKGLEYIGYIDTGASITDYASWAKGRFTISKTSSTTVTLEMTSLTDADTATYFCARGFSMFKLWGPGTLVTISS
VL: ELDLTQTPSSVSAAVGGTVTISCQASQSVYGNNRLAWYHQKPGQPPKRLIYLASTLDSGVPSRFKGAGSGTQFTLTISDLECDDAATYYCAGGYAGNFNAFGGGTEVEIK
notes: recombinant rabbit IgG
B3: B1-#202-2 (antibody, V domains shown)
VH: SQSLEESGGGLVKPGASLTLTCKGSGFSFNGDYYMCWVRQTPGKGLEWIGCIYAAGDDTYYATWAKGRFTISKTSSTTVTLQMTSLTAADTATYFCARDQADSYAFGLWGPGTLVTISS
VL: ELVLTQTASPVSGAVGGTVTIKCQASQNIYSNLAWYQQKPGQPPKLLIYSASKLASGVPSRFKGSGSGTEYTLTISGVQCEDAATYYCQSYYYTASADTTFGGGTEVEIK
notes: recombinant rabbit IgG
B4: B1-#98 (antibody, V domains shown)
VH: EQSLEESGGDLVKPEGSLTLTCTASGFSFSSSYWICWVRQAPGKGLEWIACVATGSGTTDYASWAKGRFTMSKTSSTTVTLQMTSLTVADTATYFCARIGAFYSFRLWGPGTLVTISS
VL: ELDLTQTPGSVEAAVGGTVTIKCQAGQSIYNYLSWYQQKPGQPPKLLIYSASTLESGVPPRFSGSGSGTEFTLTISDLECADAATYSCQNNYGIGSNYGPGFGGGTEVEIK
notes: recombinant rabbit IgG
B5: B1-#175 (antibody, V domains shown)
VH: ESEGGLVKPGGTLTLTCKVSGIDFNSYKYYYMCWVRQAPGKGLEWIGCMSTASRNIYYASWAKGRFTISETSSTSVTLQMTTLTAADTATYFCAKSHGGDGGYGVVLWGPGTLVTISS
VL: ELVMTQTPSSVSAAVGDTLTINCQASETISNRLAWYQQKPGQPPKLLIYSASTLESGVPSRFRGSGSGTQFTLTISDLECADAATYYCQSIRSSSGVVHPNTFGGGTEVEIK
notes: recombinant rabbit IgG
B6: B1-#25 (antibody, V domains shown)
VH: EQSVKESGGGLVQPEGSLTLTCKVSGIDFNYYNYYYMCWVRQAPGKGLEWIGCMSTASANIYLASWAKGRFTISEASSTTVTLQMTSLTAADTATYFCAKSHGGDGGYGVVLWGPGTLVTISS
VL: B5 VL with V3D, M4L, S9F, D17G, L19V, N22K, R63K, Q70E, V97I
notes: recombinant rabbit IgG
B7: B1-#15 (antibody, V domains shown)
VH: EQSVEESGGDLVKPGASLTLTCTASGFSSSSSAYMCWVRQAPGKGLEWIACIFIGSGSDSYYATWAKGRFTISKTSSTTVTLQMTSLTAADTATYFCARNTYDWNGYIYGPCYFGLWGPGTLVTISS
VL: ELDLTQTPSSVEAAVGGTVTIKCQASQSIYNYLAWYQQKPGHSPKLLIYDVSKLASGVSSRFKGSGSGTEFTLTISDLECADAATYYCQSYYGNTVSFTFGGGTEVEIK
notes: recombinant rabbit IgG
B8: B1-#10 (antibody, V domains shown)
VH: EQSVEESGGGLVKPEGSLTLTCKASGLDFSSSYWICWVRQAPGKGLEWIACIDTGSSGSTYYASWAKGRFTVSKTSSTTVSLQMTSLTAADTATYFCASTPNSLGYDLWGPGTLVTISS
VL: ELDLTQTPASVSAAVGGTVTIKCQASQNIVSNLAWYQQKPGQRPKLLIYYASTLASGVPSRFKGSGSGTEYTLTISDLECADAATYYCQNNAGIYGNYGHGFGGGTELEIK
notes: recombinant rabbit IgG
B9: B1-#38 (antibody, V domains shown)
VH: EQSVEESEGGLVQPEGSLTLTCTASGFSFSNDYWICWVRQAPGKGLEWIGCGHIGSFRTTYYASWAKGRFSISKTSSTTVTLQMTSLTGADTATYFCARSPYDDGYGGFTFNLWGPGTLVTISS
VL: ELDMTQTPSSVEAAVGGTVTVKCQVSQSIGNAIAWYQQKPGQPPKLLIYKASTLASGVPSRFKGSGSGTEFTLTISDLECADAATYYCQNYYYSNTNSFGGGTEVVVK
notes: recombinant rabbit IgG
B10: B1-#128 (antibody, V domains shown)
VH: RAVGKESGGDLVTLGGSLKLSCKASGIDLSNFYYMCWVRQAPGKGLEWIGCVASDSSRTHYATWPKGRFTISKTSSTTVTLQMTSLTAADTATYFCARGSGASTNGVWWVMGDGMDLWGPGTLVTVSS
VL: ELDMTQTPSSVSAAVGGTVTIKCQASQSISSYLSWYQQKPGQPPKRLIYKASTLPSGVPPRFKGSGSGTEFTLTISDLECADAATYYCQNNYHSGSSNGGGFAFGGGTQVEIK
notes: recombinant rabbit IgG
B11: B1-#115 (antibody, V domains shown)
VH: EQSVKESGGGLVQPEGSLTLTCTASGFSFSSSYWICWVRQAPGKGLEWIGCIATGTGSTYYANWVNGRFTMSKPSSTTVTLQMTTLTAADTATYFCARGGGYWSFSLWGPGTLVTISS
VL: ELVMTQTPSSVEAAVGGTVTNKCQASEDIYSNLAWYQQKPGQPPKLLIYGATTLASGVPSRFKGSGSGTEFTLTISDLECADAATYYCQAESNDVWAFGGGTEVVVK
notes: recombinant rabbit IgG
B12: B1-#76 (antibody, V domains shown)
VH: EQSVEESGGGLVQPEGSLTLTCTASGFSFSGSCDMSWVRQAPGKGLEWIACIVLSNGNTYYAGWAQGRFTISKISSTTVTLEMTSLTAADTATYFCARERYPGAFSSGLDLWGQGTLVTVSS
VL: ELDLTQTPSPVSAAVGGTVTINCQASQIVANGRLAWYQQKPGQPPKLLIYATSTLASGVPSRFKGSGSGTQFTLTINGVQCDDAATYYCQGAYSSGDVRTFGGGTEVVVK
notes: recombinant rabbit IgG
B13: B1-#56 (antibody, V domains shown)
VH: QSLEESGGDLVQPEGSLTLTCTASGFSFSINLYMCWVRQAPGKGLEWIACIYGNNNANTYYTTWAKGRFTISKTSPTTVTLQMTSLTGADTATYFCARDTAAYYAFSLWGPGTLVTISS
VL: ELVMTQTPSSSSAAVGGTVTIKCQASQSIGSRFAWYQQKPGQRPKLLIYEASKLPSGVPSRFKGSGSGTEFTLTISDLECADAAIYYCQCTYYESSSGGGFGGGTEVVVK
notes: recombinant rabbit IgG
B14: B1-#28 (antibody, V domains shown)
VH: EQSLEESGGGLVKPGASLTLTCKASGFSFSSDYDMCWVRQAPGKGLEWIGCIVTGFSGRIYYATWARGRFTFSRTSSTTLTLQMTSLTAADTATYFCARDSGNYNWDLWGPGTLVTISS
VL: ELDLTQTPTSVSAAVGGTVTIKCQASQSISDYLSWYQQKPGQPPKLLIYRASTLASGVPSRFKGSGSGTEFTLTISDLECADAATYYCQSNYYGSQGCTFGGGTEVEIK
notes: recombinant rabbit IgG
B15: B1-#220 (antibody, V domains shown)
VH: QSVEESGGGLVQPEGSLTLTCTASGFSFSGIVYMCWVRQAPGKGLEWIACAFVGSGGSTYYATWATGRFTISKTSSTTVTLQMTSLTAADTATYFCAKSYNYNGLGLWGPGTLVTVSS
VL: ELDMTQTPASVSAAVGGTVTIKCQASQSITNALAWYQQKPGQPPKLLIYRASTLASGVSSRFKGSGSGTEFTLTISDLECADAATYYCQCSYYGSTYFGSPFGGGTEVEIK
notes: recombinant rabbit IgG
B16: B1-#125 (antibody, V domains shown)
VH: EQSLEESGGGLVQPEGSLTLTCTASGFSFTKNYYMCWVRQAPGKGLEWIGCIYAGSTNTFYASWAKGRFTISKASSTTVDLKMTSLTVADTATYFCARDFVSYLNLWGPGTLVTVSS
VL: ELDLTQTPSSSSAAVGGTVTINCQASQSVYNKNYLSWFQQKPGQPPKLLIYYASTLASGVPSRFKGSGSGTEFTLTISDVVCDDAATYYCAAYKGVSDDGISFGGGTEVEIK
notes: recombinant rabbit IgG
B17: B1-#79 (antibody, V domains shown)
VH: QSLEESGGGLVQPEGSLTLTCTVSGFSFSSSWYMCWVRQAPGKGLEWIACIYTLRSGAAHYANWAKGRFTISKASSTTVTLQMNSLTAADTATYFCARATYAYAGAGDLWGPGTLVTVSS
VL: ELVLTQTPSSVSAAVGGTVTINCQASEDIDRYLAWYQQKPGQRPKLLIVDASTLPSGVPSRFKGSGSGTEFTLTISDLECADGATYYCQSYDNSDNNGFGGGTEVVVK
notes: recombinant rabbit IgG
B18: B1-#160 (antibody, V domains shown)
VH: QEQLVESGGGLVQPEGSLTLTCKASGIDFSSGYWICWVRQAPGKGLELIACIFTSSGTTYYASWAKGRFTISKTSSTTVTLQMTSLTAADTATYFCARDIYSYGMDLWGPGTLVTVSS
VL: ELDLTQTPASVSAAVGGTVTIKCQASQSISSSYLAWYQQKPGQPPKLLIYSASSTASGVPSRFKGSGSGTQFTLTISDLECADAATYYCQSTYISSSKYGAVFGGGTELEIK
notes: recombinant rabbit IgG
B19: B1-#224 (antibody, V domains shown)
VH: B18 VH with Q1E, E2Q, Q3S, L4V, V5E, K23T, Y33A, S55T, T58F, V116I
VL: ELVLTQTPSSVSEPVGGTVTIKCQASQSISSSYLAWYQQKPGQPPKFLIYSASTLASGVPSRFKGSGSGTEFTLTISDLECADAATYYCQSTYISSSNYGAAFGGGTEVEIK
notes: recombinant rabbit IgG
B20: B1-#58-1 (antibody, V domains shown)
VH: EQSLEESGGDLVKPGASLTLTCTASAFSFSSSSWICWVRQAPGKGLEWIACIYGGSVGTTYYASWAKGRFTISKPSSTTVTLQMTSLAAADTATYFCATNTDSSRSYYNLWGPGTLVTISS
VL: ELVLTQTPSSVEVAVGGAVTIKCQASHIITNYLAWYQQRPGQPPKLLIYDASKLASGVPSRFKGSGSGTEFTLTISDLECADAATYYCQNYLYFSSGDWNVFGGGTEVVVK
notes: recombinant rabbit IgG
B21: B1-#83 (antibody, V domains shown)
VH: B20 VH with E5K, G58A, S64T, A88P, I119V
VL: B20 VL with V3D
notes: recombinant rabbit IgG
B22: B1-#226 (antibody, V domains shown)
VH: QEQLVESGGGLVQPEGSLTLTCTASGFSFSSRQYISWVRRAPGKGLEWIGAIVTVNNKVHYANWAKGRFTISEASSTTVTLQMTSLTAADTATYFCARWRTFGLWGPGTLVTVSS
VL: ELVLTQTPSSKSVAVGDTVTINCQASENVYSNNYTSWFQQKPGQPPKQLLYYAAYRASGVPSRFKGSGSGTEFTLSISDVVCDDAATYYCSGHKDYSDDGSTFGGGTEVVVK
notes: recombinant rabbit IgG

Positions count from the first letter of the chain named.

T1 sequence (Q8NHL6 24-461 limits assumed): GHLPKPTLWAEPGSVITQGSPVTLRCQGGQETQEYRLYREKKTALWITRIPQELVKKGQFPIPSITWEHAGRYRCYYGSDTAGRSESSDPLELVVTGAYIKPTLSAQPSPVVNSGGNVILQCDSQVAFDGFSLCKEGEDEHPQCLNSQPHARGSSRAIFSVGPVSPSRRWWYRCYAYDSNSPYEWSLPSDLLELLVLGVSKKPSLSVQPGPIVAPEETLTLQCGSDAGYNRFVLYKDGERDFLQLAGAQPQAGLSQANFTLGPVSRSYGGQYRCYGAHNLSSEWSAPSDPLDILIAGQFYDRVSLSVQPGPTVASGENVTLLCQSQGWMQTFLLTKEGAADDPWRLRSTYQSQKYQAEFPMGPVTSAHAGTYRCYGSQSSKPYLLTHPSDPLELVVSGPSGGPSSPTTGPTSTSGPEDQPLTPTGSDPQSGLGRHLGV

This assay has as its target T1, recombinant LILRB1 (human, UniProt Q8NHL6 24-461).
T1 construct: LILRB1-Fc proteins were also made; also called LILRB1 recombinant proteins
As to the kind of experiment: ELISA, coated recombinant LILRB1, antibody titration.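 Note: serially diluted anti-LILRB1 antibodies incubated 60 min at 37 °C on plates coated with 50 ng/well recombinant protein, TMB colorimetric development read as absorbance at 450 nm.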 In general terms: An ELISA detects its analyte on a solid surface through an enzyme-linked reagent.
Protocol: ELISA. LILRB1 recombinant proteins (50 ng/well, 100 μL per well) were coated on Corning 96-well ELISA plates at 37° C. for 4 hrs. Plates were blocked for 2 hrs at 37° C. with 5% non-fat milk. After washing with PBST, 100 μL of serial diluted anti-LILRB1 antibodies were added and incubated for 60 min at 37° C. […] Plates were washed again with PBST for another 5 times, then the immunoreactions were developed with TMB substrates (Sigma, Cat #T0440) and stopped by the addition of 2 M H_2SO_4 before the plate was read at 450 nm.
Regarding B1, the concentration giving a half-maximal response (EC50) came to 0.0196 µg/mL. As to B2, the half-maximal effective concentration (EC50) worked out at 0.0159 µg/mL. Turning to B3, the concentration for a half-maximal effect (EC50) turned out to be 0.0594 µg/mL.

B4: the concentration giving a half-maximal response (EC50) worked out at 0.038 µg/mL.

On to B5, for which the EC50 was 0.0053 µg/mL. As to B6, the EC50 is 0.0132 µg/mL.

On to B7, for which the EC50 was found to be 0.0093 µg/mL.

Consider B8, for which the 50% effective concentration (EC50) was determined as 0.0209 µg/mL.

Turning to B9, the EC50 was 0.181 µg/mL. As for B10, the EC50 was determined as 0.04 µg/mL.

For the molecule B11, the EC50 came to 0.052 µg/mL. For B12 the value was 0.0284 µg/mL; for B13, 0.0438 µg/mL. For B14 the value was 0.0242 µg/mL; for B15, 0.0106 µg/mL. B16: the EC50 turned out to be 0.0076 µg/mL. For B17 the value was 0.0154 µg/mL; for B18, 0.0285 µg/mL. As to B19, the concentration giving a half-maximal response (EC50) was determined as 0.0109 µg/mL.

In the case of B20, the EC50 stood at 0.0171 µg/mL.

As to B21, the 50% effective concentration (EC50) worked out at 0.0155 µg/mL. Turning to B22, the EC50 amounted to 0.00826 µg/mL.

By EC50 is commonly meant the concentration that produces a half-maximal response.

These data come from patent publication US12723078 (University of Texas, dated 2026).
